From doi:10.1101/2020.12.01.406983 (bioRxiv, 2020)

Target: canine parvovirus (CPV) capsid (Canine parvovirus type 2, strain CPV-d …, UniProt P17455)
Assay: cryo-EM structure

Chain of canine parvovirus (CPV) capsid (P17455 whole entry, looked up): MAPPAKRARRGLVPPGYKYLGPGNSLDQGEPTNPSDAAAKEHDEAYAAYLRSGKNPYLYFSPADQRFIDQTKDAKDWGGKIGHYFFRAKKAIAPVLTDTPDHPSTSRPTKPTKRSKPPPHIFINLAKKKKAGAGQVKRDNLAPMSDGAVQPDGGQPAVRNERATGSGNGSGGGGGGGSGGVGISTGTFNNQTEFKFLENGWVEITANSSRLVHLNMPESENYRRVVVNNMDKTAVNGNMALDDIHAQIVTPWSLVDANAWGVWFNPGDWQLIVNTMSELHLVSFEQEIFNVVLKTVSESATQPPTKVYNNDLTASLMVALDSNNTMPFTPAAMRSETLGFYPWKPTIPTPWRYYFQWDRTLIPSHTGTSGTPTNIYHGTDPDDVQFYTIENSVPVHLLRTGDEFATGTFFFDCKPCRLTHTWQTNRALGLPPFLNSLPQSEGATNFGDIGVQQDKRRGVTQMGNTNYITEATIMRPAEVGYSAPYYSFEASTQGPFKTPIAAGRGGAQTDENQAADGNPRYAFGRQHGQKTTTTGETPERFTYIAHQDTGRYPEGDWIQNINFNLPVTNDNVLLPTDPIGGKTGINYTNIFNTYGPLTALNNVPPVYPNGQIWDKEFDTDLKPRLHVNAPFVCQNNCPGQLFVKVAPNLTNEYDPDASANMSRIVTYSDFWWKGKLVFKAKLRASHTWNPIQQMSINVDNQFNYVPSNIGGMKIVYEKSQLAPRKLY

B1: Fab of MAb14 (Fab 14) (Fab, V domains shown)
VH: AVHLQGTELVKPGASAGVKLSCKASGYTFTNYDMNWVRQRPEQGLEWIGWIFPGDGSTRYNEKFKGKATLTTDKSSSTAYQLNRLTSEDSAVYFCARRGSHGSYSFAYWGQGTLVTVSG
VL: DIVMTQSHKFMSTSVGDRVSITCKASQDVNTALAWYQQIPGQSPKLLIYSASNRYTGVPDRFTASGSGTDFTFTISSVQAEDLALYYCQQHYTTPWTFGGGTKLEIK
stoichiometry N: ~60 Fab 14 molecules per capsid
